Experimental data published in article PMC2481239 (Nature structural & molecular biology, 2008).

B1: Rad23 (natural protein)
chain: MVSLTFKNFKKEKVPLDLEPSNTILETKTKLAQSISCEESQIKLIYSGKVLQDSKTVSECGLKDGDQVVFMVSQKKSTKTKVTEPPIAPESATTPGRENSTEASPSTDASAAPAATAPEGSQPQEEQTATTERTESASTPGFVVGTERNETIERIMEMGYQREEVERALRAAFNNPDRAVEYLLMGIPENLRQPEPQQQTAAAAEQPSTAATTAEQPAEDDLFAQAAQGGNASSGALGTTGGATDAAQGGPPGSIGLTVEDLLSLRQVVSGNPEALAPLLENISARYPQLREHIMANPEVFVSMLLEAVGDNMQDVMEGADDMVEGEDIEVTGEAAAAGLGQGEGEGSFQVDYTPEDDQAISRLCELGFERDLVIQVYFACDKNEEAAANILFSDHAD
B2: Rpn2 (natural protein)
chain: MSLTTAAPLLALLRENQDSVKTYALESINNVVDQLWSEISNELPDIEALYDDDTFSDREMAALIASKVYYNLGEYESAVKYALAAKDRFDIDEKSQFVETIVSKSIEMYVQEASKQYTKDEQFYTKDIIDPKLTSIFERMIEKCLKASELKLALGIALEGYRLDIIESALKSKLDQDSTSENVKIINYLLTLAITTVTNSKFRSSILRKSFDFLMNMPNCDYLTLNKVVVNLNDAGLALQLFKKLKEENDEGLSAQIAFDLVSSASQQLLEILVTELTAQGYDPALLNILSGLPTCDYYNTFLLNNKNIDIGLLNKSKSSLDGKFSLFHTAVSVANGFMHAGTTDNSFIKANLPWLGKAQNWAKFTATASLGVIHKGNLLEGKKVMAPYLPGSRASSRFIKGGSLYGLGLIYAGFGRDTTDYLKNIIVENSGTSGDEDVDVLLHGASLGIGLAAMGSANIEVYEALKEVLYNDSATSGEAAALGMGLCMLGTGKPEAIHDMFTYSQETQHGNITRGLAVGLALINYGRQELADDLITKMLASDESLLRYGGAFTIALAYAGTGNNSAVKRLLHVAVSDSNDDVRRAAVIALGFVLLRDYTTVPRIVQLLSKSHNAHVRCGTAFALGIACAGKGLQSAIDVLDPLTKDPVDFVRQAAMIALSMILIQQTEKLNPQVADINKNFLSVITNKHQEGLAKFGACVAQGIMNAGGRNVTIQLENADTGTLDTKSVVGLVMFSQFWYWFPLAHFLSLSFTPTTVIGIRGSDQAIPKFQMNCYAKEDAFSYPRMYEEASGKEVEKVATAVLSTTARAKARAKKTKKEKGPNEEEKKKEHEEKEKERETNKKGIKETKENDEEFYKNKYSSKPYKVDNMTRILPQQSRYISFIKDDRFVPVRKFKGNNGVVVLRDREPKEPVALIETVRQMKDVNAPLPTPFKVDDNVDFPSA

Columns and labels:
[1] = target: T1, Rpn1 (S. cerevisiae, UniProt P38764 1-993); test: atomic force microscopy
T1 sequence: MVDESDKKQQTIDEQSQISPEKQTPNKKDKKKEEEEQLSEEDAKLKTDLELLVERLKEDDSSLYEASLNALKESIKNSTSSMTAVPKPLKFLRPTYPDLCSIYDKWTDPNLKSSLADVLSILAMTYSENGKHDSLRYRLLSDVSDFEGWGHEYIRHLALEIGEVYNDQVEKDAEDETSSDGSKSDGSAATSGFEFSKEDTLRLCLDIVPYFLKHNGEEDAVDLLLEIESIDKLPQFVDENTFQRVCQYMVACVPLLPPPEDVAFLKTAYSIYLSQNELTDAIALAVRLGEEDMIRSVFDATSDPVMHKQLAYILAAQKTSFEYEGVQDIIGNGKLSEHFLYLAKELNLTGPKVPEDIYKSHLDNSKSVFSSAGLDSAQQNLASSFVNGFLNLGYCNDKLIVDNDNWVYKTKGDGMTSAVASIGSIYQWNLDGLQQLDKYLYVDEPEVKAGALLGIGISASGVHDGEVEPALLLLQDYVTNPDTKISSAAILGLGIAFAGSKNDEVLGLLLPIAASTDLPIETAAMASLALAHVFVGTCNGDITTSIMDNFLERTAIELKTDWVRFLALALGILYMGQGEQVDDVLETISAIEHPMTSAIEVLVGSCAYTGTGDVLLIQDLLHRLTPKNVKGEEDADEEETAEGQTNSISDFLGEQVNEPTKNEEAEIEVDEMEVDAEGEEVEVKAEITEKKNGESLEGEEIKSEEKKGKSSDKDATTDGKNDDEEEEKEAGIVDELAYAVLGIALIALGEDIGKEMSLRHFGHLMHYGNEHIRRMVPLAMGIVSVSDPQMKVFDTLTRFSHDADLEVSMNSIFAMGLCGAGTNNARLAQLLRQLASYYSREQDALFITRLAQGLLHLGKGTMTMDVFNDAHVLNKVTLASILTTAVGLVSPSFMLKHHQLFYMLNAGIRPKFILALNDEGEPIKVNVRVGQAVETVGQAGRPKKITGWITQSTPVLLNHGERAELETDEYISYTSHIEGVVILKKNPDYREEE

[2] = target: Rpn1-Rpn2 unit (S. cerevisiae, UniProt P38764 1-993; P32565 1-945); test: atomic force microscopy
[3] = target: T1, Rpn1; test: cross-linking

Binder | stoichiometry N [1] | stoichiometry N [2] | binding result [3]
B1 | 1 | 1 | –
B2 | – | – | binds
